According to PMC11203719, “Mts1 (S100A4) and Its Peptide Demonstrate Cytotoxic Activity in Complex with Tag7 (PGLYRP1) Peptide” (International Journal of Molecular Sciences, 2024):

Biological target: Mts1 (S100A4) protein, recombinant human (human) (UniProt P26447)
Assay: MST; Mts1 labelled with Alexa Fluor 633 (200 nM), preincubated 20 min in the dark at room temperature with 16 concentrations of Tag7 or peptide; Monolith NT.115, 10% IR laser power; apparent Kd

Mts1 (S100A4) protein, recombinant human (human), sequence (P26447 whole entry): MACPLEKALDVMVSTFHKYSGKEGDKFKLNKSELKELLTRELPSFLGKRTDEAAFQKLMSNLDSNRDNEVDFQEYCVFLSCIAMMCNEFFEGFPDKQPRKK

Kd: 9.21 µM
Substance: Tag7 (PGLYRP1) protein, recombinant (from UniProt O88593 19-182) (natural protein)
